Results as given in patent US20250283871A1, “COMPOSITIONS AND METHODS FOR MODULATING THE INTERACTION BETWEEN SS18-SSX FUSION ONCOPROTEIN AND NUCLEOSOMES” (Dana-Farber Cancer Institute, Inc., priority 2020, published 2025).

Columns and labels:
[1] = biological target: URB2_HUMAN Unhealthy ribosome biogenesis protein 2 homolog (human) (UniProt Q14146); test: anti-SMARCA4 (BRG1) IP, mass spectrometry, Aska-SS cells
[2] = biological target: QCR2_HUMAN Cytochrome b-c1 complex subunit 2, mitochondrial (human) (UniProt P22695); test: as above
[3] = biological target: XRN2_HUMAN 5'-3' exoribonuclease 2 (human) (UniProt Q9H0D6); test: as above
[4] = biological target: UBP2L_HUMAN Isoform 5 of Ubiquitin-associated protein 2-like (human) (UniProt Q14157); test: as above
[5] = biological target: TNR6B_HUMAN Trinucleotide repeat-containing gene 6B protein (human) (UniProt Q9UPQ9); test: as above
[6] = biological target: TSP1_HUMAN Thrombospondin-1 (human) (UniProt P07996); test: as above
[7] = biological target: VIME_HUMAN Vimentin (human) (UniProt P08670); test: as above
[8] = biological target: YLPM1_HUMAN Isoform 4 of YLP motif-containing protein 1 (human) (UniProt P49750); test: as above
[9] = biological target: TRA2B_HUMAN Transformer-2 protein homolog beta (human) (UniProt P62995); test: as above
[10] = biological target: UCRIL HUMAN Putative cytochrome b-c1 complex subunit Rieske-like protein 1 (human) (UniProt P0C7P4); test: as above
[11] = biological target: UBC_HUMAN Polyubiquitin-C (human) (UniProt P0CG48); test: as above
[12] = biological target: ZN326_HUMAN DBIRD complex subunit ZNF326 (human) (UniProt Q5BKZ1); test: as above
[13] = biological target: ZC11A_HUMAN Zinc finger CCCH domain-containing protein 11A (human) (UniProt O75152); test: as above
[14] = biological target: SMRD1_HUMAN SWI/SNF-related matrix-associated actin-dependent regulator of chromatin subfamily D member 1 (human) (UniProt Q96GM5); test: MS of BAF complexes from Aska-SS cells, shControl against shSS18-SSX, Rep 1
[15] = biological target: BCL7C_HUMAN Isoform 2 of B-cell CLL/lymphoma 7 protein family member C (human) (UniProt Q8WUZ0); test: as above
[16] = biological target: URB2_HUMAN Unhealthy ribosome biogenesis protein 2 homolog (human) (UniProt Q14146); test: anti-SMARCA4 (BRG1) IP, mass spectrometry, HEK-293T cells
[17] = biological target: QCR2_HUMAN Cytochrome b-c1 complex subunit 2, mitochondrial (human) (UniProt P22695); test: as above
[18] = biological target: XRN2_HUMAN 5'-3' exoribonuclease 2 (human) (UniProt Q9H0D6); test: as above
[19] = biological target: UBP2L_HUMAN Isoform 5 of Ubiquitin-associated protein 2-like (human) (UniProt Q14157); test: as above
[20] = biological target: TNR6B_HUMAN Trinucleotide repeat-containing gene 6B protein (human) (UniProt Q9UPQ9); test: as above
[21] = biological target: TSP1_HUMAN Thrombospondin-1 (human) (UniProt P07996); test: as above
[22] = biological target: VIME_HUMAN Vimentin (human) (UniProt P08670); test: as above
[23] = biological target: YLPM1_HUMAN Isoform 4 of YLP motif-containing protein 1 (human) (UniProt P49750); test: as above
[24] = biological target: TRA2B_HUMAN Transformer-2 protein homolog beta (human) (UniProt P62995); test: as above
[25] = biological target: UCRIL HUMAN Putative cytochrome b-c1 complex subunit Rieske-like protein 1 (human) (UniProt P0C7P4); test: as above
[26] = biological target: UBC_HUMAN Polyubiquitin-C (human) (UniProt P0CG48); test: as above
[27] = biological target: ZN326_HUMAN DBIRD complex subunit ZNF326 (human) (UniProt Q5BKZ1); test: as above
[28] = biological target: ZC11A_HUMAN Zinc finger CCCH domain-containing protein 11A (human) (UniProt O75152); test: as above

“SMCA4_HUMAN Transcription activator BRG1 (from UniProt P51532 1-1647) (enzyme)” showed an NSAF [1] of 0, an NSAF [2] of 0 and an NSAF [3] of 0. It also gave an NSAF [4] of 0, an NSAF [5] of 0 and an NSAF [6] of 0. It also gave an NSAF [7] of 0, an NSAF [8] of 0 and an NSAF [9] of 0. It also gave an NSAF [10] of 0, an NSAF [11] of 0 and an NSAF [12] of 0. For the same substance, the NSAF [13] was 0, the LFQ intensity ratio Aska (shControl)/Aska (shSS18-SSX), norm to SMARCA4 [14] was 0.771 and the LFQ intensity ratio Aska (shControl)/Aska (shSS18-SSX), norm to SMARCA4 [15] was 1.74. It also gave an NSAF [16] of 4.08e-05, an NSAF [17] of 0 and an NSAF [18] of 6.55e-05. The NSAF [19] was 5.64e-05, the NSAF [20] was 3.4e-05 and the NSAF [21] was 0. The NSAF [22] was 0, the NSAF [23] was 0.000116 and the NSAF [24] was 0. For the same substance, the NSAF [25] was 0, the NSAF [26] was 9.09e-05 and the NSAF [27] was 0.000749. For the same substance, the NSAF [28] was 7.68e-05.
